Results as given in paper PMC2653429.

B1: 4Cm (dsDNA)
DNA 1: GATCTTGCCAAGCTCCACGATC
DNA 2: GATCGTGGAGCTTGGCAAGATC
B2: (1+2)m (dsDNA)
DNA 1: GATCTTAGGTAGCCCCCGGGACTGGCACAGGCACCTTGATC
DNA 2: GATCAAGGTGCCTGTGCCAGTCCCGGGGGCTACCTAAGATC
B3: 3Cm (dsDNA)
DNA 1: GATCCCTGGCACCCTTCCTGATC
DNA 2: GATCAGGAAGGGTGCCAGGGATC

target: GST-Dpn bHLH (UniProt Q26263 1-108); experiment: EMSA
Sequence (Q26263 1-108): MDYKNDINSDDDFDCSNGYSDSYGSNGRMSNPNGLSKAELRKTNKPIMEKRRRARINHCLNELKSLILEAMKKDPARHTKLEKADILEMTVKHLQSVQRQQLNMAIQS

Binding result, no binding:
B1
B2
B3
